Patent US6518063

Molecular target: OSF2/CBFA1b (lacks 22 aa of exon 8) deletion of 22 aa encoded by exon 8 (Homo sapiens) (UniProt Q13950)
Assay: cell_activity
Conditions: p6OSE2-luc, F9 cells

Chain of OSF2/CBFA1b (lacks 22 aa of exon 8) deletion of 22 aa encoded by exon 8 (Homo sapiens) (Q13950 whole entry, stated change not applied): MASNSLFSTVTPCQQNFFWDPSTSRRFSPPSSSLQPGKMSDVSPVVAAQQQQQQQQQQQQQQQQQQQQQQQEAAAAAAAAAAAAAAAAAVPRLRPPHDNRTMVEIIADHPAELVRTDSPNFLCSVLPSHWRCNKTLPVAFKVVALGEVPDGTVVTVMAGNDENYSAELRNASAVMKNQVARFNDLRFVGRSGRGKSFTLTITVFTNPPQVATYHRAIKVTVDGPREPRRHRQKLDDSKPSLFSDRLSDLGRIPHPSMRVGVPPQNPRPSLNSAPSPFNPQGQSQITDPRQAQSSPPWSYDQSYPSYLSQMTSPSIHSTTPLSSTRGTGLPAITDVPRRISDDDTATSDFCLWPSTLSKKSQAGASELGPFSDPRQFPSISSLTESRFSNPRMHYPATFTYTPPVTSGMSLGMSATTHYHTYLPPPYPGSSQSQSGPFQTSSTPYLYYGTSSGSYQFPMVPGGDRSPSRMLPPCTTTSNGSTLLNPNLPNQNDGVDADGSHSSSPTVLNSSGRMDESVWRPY

AGCTGCAATCACCAACCACAGCA (double strand) [Osteocalcin (OG2) OSE2]
activity (fold activation): 40
